Data on 47 sequences can be found in the NTF2 design screens of Basanta et al. (2020).

The nature of the data set: protease stability score; higher = more stable; yeast display proteolysis, trypsin and chymotrypsin.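 Further: relative to predicted unfolded state with 0 unfolded-like and 1 meaning tenfold more protease.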
For the sequence “NEEEELLHRLAKRFIELFLTGDWEVMEKLFDPHVKIDVNGRESHGREQVWHLLMHLLHELRIHHILIRSFDVFDGRAHSSVEVNGEFNGKRDLTEAEVVIVSVDGKMKSVSIKLR”, the protease stability score was 1.23.
For “NEEEETARHAIEEFVRVLMTGDWRTLERLLDPNYRIYQGDKTYIGMEHFLELWVHILDRIKNLRLEIHSYEIQGEKVHIHTILNYDGRDIEYVIIQIKINGRWLLHSLHFL” the value was 1.24.
Under “NEEEHELELAYRWYEESILTGDEDELTHLLDPHVRLQYGDKEFHGREIVLHFFHKHWREMGAKYIEVHSISLYGDKIVFDSTLHINGRTHRVHVTSRKVDGRWRIRSMRIN” stands 1.63; under “NEEEHFMKEALEIWLHFFRTGDERDIQREFDPNARFEFENHTSHGRESVRELLTRLFHDLGINHVQFESIRVQGDKVEIHGHFFVDGRRYDFEMNSVKINGRWLNHTIRLR”, 1.12.
For “NEEEHKLEEEFERLMHLLLTGDEEKLHRLADPNVKVNVNGKDLHGMELFFHVWWEELKRYDYWHITIRHIDSQGNKADSEVELNLVFNGKEIRIDSRMHLEVVNGRIKRIEIRPI” the value was 1.63; for “NEEEHTFEIAIRILREMWETGDEKLSQELADPNARLDIGDKHFHGRESLRHRVHEMRIEHTDIHSYHTINGRVHMDWRVDGFINGQRHDTRMHLDVIKIDGRWIIKNVEVK”, 0.571.
Turning to “NEEEKIIKKDIEKEITAWETGDFDTLDHLLDPHARMDINGKDLHGREVLKTHFHEEWNRLGLEKVEIHIQDFRVIDGRVHIDGYMNVNGRHQKVRFIARKVNGRWIIHEVEFR”, the protease stability score was 1.32.
Turning to “NEEEKLSEEWSDHLLHNLITGDEEMLKRFMDPHTWAESEVDGQDEKYHGREQALHMVYRVIHRLGFNHFHIHRHRVIGDKIHVELRIVVGDKEVDAHFETIIINGKVHRIRIHVTKR”, the protease stability score amounted to 0.323.
“NEEEKRMVEEHEKFWNFVRTGDEDTVRDLIDPHARVIQGNKILHGWEEAVRWMKEIRIHDIRIHSSHEVDGRVTITGDMDFEFNGKRHILEVRIFLLKIDGRWIHTFIQID” had a protease stability score of 1.33.
Under “NEEEQEILEDVEEHIRAEYTGDEEVLDNLADPNTRIHYGEKELHGREEWLQLVHDEHNRFKGMKIEVIIRHIDIYDGRVRSEGELHIHVGDKEYHVDVQMILTKVNGRWLLTRIHFH” stands 0.093; under “NEEERENIRIFMMWIEDLVTGNWDRIEHLADPHYRQDVNGRHIHGRDTFAQMVREEMHRIDHHEIKLRHVSVQGNKLRAHVEINLIIGEKRIEKEVIVDLNVINGVLHEVKIVVR”, 1.04; under “NEEFRDAQMAAHEFINVMETGDEHLLSRRLDPNMRVDINGREFHGWEQWVRIFREIRVKSIRYEEIRVQGDKVHLHTRLHVTIGDYEFTTETTIFIDKINGVWYIKEFHMN”, 0.253.
Under “NEEHEVLERVVELFMEILDTGNERLSRELVDPHVRVIIGDKELHGREQVARFHKELHERVDHWEIHIRRIEFQGDKLHMDFELRNDYNGVRITTDLIILVKKVNGVWKLRAREVR” stands 0.271; under “NEEKEEAERFTRQFLHSWRTGDEESLKRMADPNVRIIVGDYEKVGWEAIEETIKRLGIDHLEYHSVHVHVIGDKVNIHSDVRIQVNGQERDVQIHVHMRKINGRWFVESIRLNFH”, 1.26.
For “NEEKELWHKDIEDLQRDWKTGDEDSVREQLDPDVRLDINGVEIIGMEEATRFIIELMREIRIHVNLERIIIQGDKIILHGNLVVEQGDKHHITRQTIDARKVDGRWFEHKVRVE” the value was -0.033.
The sequence “NEEKETADTFLRHLVHRLHTGDEDMLMRLADPHVLIIQGDKTYHGWHWFERNFLEQINRFKGLTVKVERKDVHLFENRLILEGTLHLEFNGRDVHIEQEIIVHKINGRWILTHYMLI” showed a protease stability score of 0.813.
Under “NEEKRDSDILRRHLLEVLDTGDWDRMHELADPNAKTHFNGRDHHGREDMTHLFRELGVKHQELRSVHLQGNYVEITIHVSVDGRHVHLRFFMVKIDGKWRIRHMEIEWL” stands 1.14.
In the case of “NEEQKEAEDFMRMVSRIHETGDEDSLRRYFDPNVRIKDENHHLHGWKELIHWTHRVDHIEVRVKNVDIQGDKIHLDGEEIVRIDGVEVRRRVLFILTKVNGRWHIQEIRIE”, the protease stability score came to 0.72.
Under “NEEQNHAERMMRENLHNIMTGDEHKLHKLADPDARIEIGDKEIIGRELFSRILLELRFEITRVHIREITLIGDKVHVRTEEDVVIKVNGVEKRRHINSEWIFFKFNGQWLLKEVRFE” stands 1.34.
Under “NEERSHSEEVARLISHAWETGDEETLREQVDPHVKLVIGDKTFHGREEALTIIVQLRLRTVEIHDMKVVNGRLNLFTLWHIEIDGRRVLHHVVIHIEKIDGRWVMTEVRVH” stands 2.1.
With “NEHEETIEILFRDIVHVLRTGDWKLFSDLMDPHARYVIGDKTFHGRESWVREFDRLLEQIKGVRFDVRHVNVVGDKVHAFTDWEFNGVMFDTRLDLHIVDGRIKEMRLEIR”, the protease stability score was found to be 1.12.
Under “NEHEEYARRQLELWLHATRTGDEETVRRLADPDVRVIVDGREHHGMEQLLRWMIELRITDFKEDTYEIQGNKIKIRGILYIEIGDKHETRFTTIELNWFNGVLKHIKVEVR” stands 1.28; under “NEHEKLLKESLEELRHALRTGDEESLERLVDPHARMVVNGVTYHGREYLHRFFHRIDYFHNEHLDVKEVHVQGDKIHFDVVTHGVFHVGDKKIKDTIRLSSIAEKIDGRWFNREIFHH”, 0.412; under “NEHKEEALHALQLWLRYYETGNEDSLREMLDPNVRVVINGKELHGMELFLDYIVDTRDRIKGLRIIIDDIEIHYVGDKVHVNIRGISYFNGREHEVEINIFSRKINGKWYLSSLELRVN”, 2.55.
“NEIEEIVERLWRLYIQNRLTGDEDQMSRLADPHTRVHIHIGDKHIDIHGMENTARLTTKLRREIRMEIEIHHVTVQGNKLHAEVRLILHIGDKILESDTRIINIFVDGKLRTVHIHIE” gave a protease stability score of 1.32.
On to “NEIEELVRESLELLAHALETGDEKLMTELADPDTRLIVNGRHLWGWELHLMFLTRFDHIETRIRLTEMEVQGEKVNSRGDMDVIVNVDGQRDRKRHEFIIISTKINGRWRLKSVILR”, for which the protease stability score came to 1.57.
For “NEINRHLHEAFKKLINVMMTGDEEESTELLDPNARINFNGKDFWGWNELRKSMHEARIHHIQITSVRYIGDKIIIHGTVDGEFDGQRKEVEMEIFSRKFNGQWFFESIIIR” the value was 1.28.
The sequence “NEKEEESKRFIELFMELIVTGNEEVLYKLADPTVQWRADVDGQEINLHGWEHIHDEINKFPNITLELEEREIQGDKVDIRTRLHIGDKTRDTRVIIIVINGRVKQIHIEIR” registered a protease stability score of 2.28.
Under “NEKEELLRKIMDMLIRHWETGDFEKLMELADPNVRLHYEQGDKEHHHHGREDVAKFIEELLRMLGVDHWHLEKIEIVGEKLHLHGRIHVNGRTIDLRIHWVVVNGVLKSVRIILG” stands 1.14; under “NELDKHTKEFAERWIKSVETGDWRSEEHLLDPHVKLETKVNGRDVRVVGREEVHRYLRELHEELGVDKVEFITRRIRLQGDKIDIDGELRINGRTHEAHIHLDIINGRIHSVRLQWT”, 1.44; under “NELEDLVRWAWQLIVESHQTGNEHMMEELADPNMRIHINGVDLVGRKDFRKMLKDHRDRVDHLEVELTDFILIDGRVIVHGQINIQIGDKREERRVRLFLLKINGKWRIEKLEVE”, 1.64.
Under “NELEDRFDYAMKLWIDILRTGDEHQFEEMADPNVRIIDGDKHNVGREILYFLLWKFGFDNFEFRLHDFKIQGEKIHIDGHFRVDGQTHRVHFVVLKIDGRWLVESVERK” stands 2.01; under “NELEEEAHRKMEKVLRHLQTGDEDSLHRLLDPNVRLIVGDKEMHGRERAVEVLSRILKEMGVKHIKLRRFSVFNGVAHTDSELNQGEYVHNLHLVIEKVDGQWVMRSLHIE”, 1.41.
Under “NELEKETHEITRRWIEILLTGNEEDWAKLADPHVRIDINGKKYVGREMVVEYLRELLDKIKNLQFHITRIHDQGDKSEIDGRLEYNGRKHEARVEIWIIDGKIRSEHYSIR” stands 2.2; under “NELEKHLREMTREMLEAWRTGDFDHLEHLADPHVRIETIYNGQREEFHGREWLIKAVERLDRLMGIDHIYFQEWTTIGDFVDVDLRTQVGDKRIRLHMELNVVNGRIKFHRIEVE”, 1.24.
Turning to “NELEKWVEQATREILRVMETGDPNETEKLIDPHVRREQGEFIYHGWENITHFMEHARFERYKLHDVDLQGDYVNLNGRLDGVYNGKKERTEVEFYVLKINGRWHVTSMHVH”, the protease stability score stood at 1.28.
Under “NELHKEYRHMLHILRHIIETGNERALEENMDPNYRIEIGDKRIHGREKALEFWWRLNKRVDHLELHDEHINLFEGHVEIDGRLILKQGEYIEESKTTIFIVKVNGRWVLRSFRVE” stands 1.86.
Under “NELQYKILHALRLFVESLLTGDPTTIERLLDPDARNQWDGVHHVGMEEWSRFLEELRIQIHDLEFKHIEIVDGQLRVDGREDMIIDVNGVRTRTNRKLRLIIVKFDGRWRIESVKVE” stands 1.22; under “NELTEVIRYWIHLWLTQLFTGNEEIIRRLADPNARFEVNGREIHGMDEWVDILKRLGMRFHHFHVDTIEIIDGVIHVQSRFDIDINGRRVNEETYHVIEKINGRWTLRTMELR”, 2.31.
For “NEMDEHARHFAELFLRLMRTGDEETTEKLADPHVKVVIGDFEFHGWKMLSIFLREIRIHDIRLEDHRTQGNKSIIHGRTDGEINGQRYETELYIELHLVNGRLKSMRFEWR” the value was 0.698; for “NEMEEYVERASRFVYELLQTGDWEKLMNNMDPNVKIRQGNKEYHGREELKRQLEELFKNWGFDRIDVEHHEIKIFENHAHIIHIMRFDGVEHELRIKALKVNGQWLFKTVEIRLH”, 1.36.
In turn, “NEMHDFAKLAIELLLKSLKTGDEHTLEHLLDPNVRMNIDGRRWHGRENWVKRVHDLGITTRDFKLTDVKNQGNKVHIDGHAVEEVNGQRIERRVEIISVKIDGKWEIEEIRIE” came in with a protease stability score of 1.02.
For “NEMHEHAREFLERWKEWMHTGDEETMSKLADPHVRNEYNGVIRVGMEALEKVIRELRVRRTHDHHEHIEFQGDKLHIHVDQESDIEINGVRHRVRIHFDIISVKINGKWTLKSIRLTFH” the value was 1.41.
Sequence “NERDERVEELMKLWFESLRTGDWRQMRNLLDPHARVIMLVGDKHVELHGWEAMLLLIHQFRNIRLRIDSTRLQGDKLEIEGTSEFDGKHRNVVIEIQVINGRIHTIKYIED” came in with a protease stability score of 2.1.
Under “NEREEHIRRLAELVRELIDTGDFDRLIKNADPNVRLEMEIGDKRIEHHGRERVHEQLEEFERRFKNATFIWKRIDVQGEKVLLDGTIRINGQEHEMHWDNQMFNGRIHSIRIDVR” stands 2.2; under “NEREKLVLDLAMRWFEAWLTGDEHLLHLLADPNVRFIYGDKHLIGMDELHRFLREIRIISRDRHFEDKRVIGDKVELDVRLRGEVDFNGRRLDIDLTVHIESHIINGKQHTSRMETI”, 1.07; under “NEREKWAVDMFEILVHLFFTGDEEIMAHMADPNTQIHYGEYHHHGRDHLRELLREEFKRVDHVEWRLDTVRIIDGRVLIHSHVIHKVGEKTIKREYVIILLKVNGQWHIKHIEIR”, 1.46.
